According to PMC3526290:

Test system: H3/H4 (FM label on H4 C71) (Xenopus laevis)
Assay: EMSA
Conditions: 0.2 uM H3/H4, 0.4 uM DNA, no chaperone, disome and tetrasome, EMSA deposition: 10 mM Tris, 150 mM NaCl, 0.5 mM TCEP, pH 8.0, on ice, 0.2x TBE native gel, FRET: 10 mM Tris pH 7.5, 150 mM KCl, 2 mM MgCl, 1% glycerol

Question: Which binding signal does the source give for 80 bp 601 DNA here?
Answer: 44 % tetrasomes
